Test results published in paper PMC3117075 (2011).
Non-standard residues stand in square brackets, D forms with d. pT = C[C@@H](OP(=O)(O)O)[C@H](N)C(=O)O; pS = N[C@@H](COP(=O)(O)O)C(=O)O

T1: Ac-pSATF-CONH2 (peptide 5) (Homo sapiens, UniProt Q9BX63, SMILES CC(=O)N[C@@H](COP(=O)(O)O)C(=O)N[C@@H](C)C(=O)N[C@H](C(=O)N[C@@H](Cc1ccccc1)C(N)=O)[C@@H](C)O)
T1 chain: Ac-[pS]ATF-NH2

T2: Ac-pSPTF-CONH2 (peptide 1) (Homo sapiens, UniProt Q9BX63, SMILES CC(=O)N[C@@H](COP(=O)(O)O)C(=O)N1CCC[C@H]1C(=O)N[C@H](C(=O)N[C@@H](Cc1ccccc1)C(N)=O)[C@@H](C)O)
T2 chain: Ac-[pS]PTF-NH2

T3: Ac-EPTF-CONH2 (peptide 2) (Homo sapiens, UniProt Q9BX63)
T3 chain: Ac-EPTF-NH2

T4: Ac-pTPTF-CONH2 (peptide 4) (Homo sapiens, UniProt Q9BX63, SMILES CC(=O)N[C@H](C(=O)N1CCC[C@H]1C(=O)N[C@H](C(=O)N[C@@H](Cc1ccccc1)C(N)=O)[C@@H](C)O)[C@@H](C)OP(=O)(O)O)
T4 chain: Ac-[pT]PTF-NH2

T5: Ac-pSPPF-CONH2 (peptide 15) (Homo sapiens, UniProt Q9BX63, SMILES CC(=O)N[C@@H](COP(=O)(O)O)C(=O)N1CCC[C@H]1C(=O)N1CCC[C@H]1C(=O)N[C@@H](Cc1ccccc1)C(N)=O)
T5 chain: Ac-[pS]PPF-NH2

T6: Ac-pSPAF-CONH2 (peptide 6) (Homo sapiens, UniProt Q9BX63, SMILES CC(=O)N[C@@H](COP(=O)(O)O)C(=O)N1CCC[C@H]1C(=O)N[C@@H](C)C(=O)N[C@@H](Cc1ccccc1)C(N)=O)
T6 chain: Ac-[pS]PAF-NH2

T7: Ac-pSPVF-COOH (peptide 19) (Homo sapiens, UniProt Q9BX63, SMILES CC(=O)N[C@@H](COP(=O)(O)O)C(=O)N1CCC[C@H]1C(=O)N[C@H](C(=O)N[C@@H](Cc1ccccc1)C(=O)O)C(C)C)
T7 chain: Ac-[pS]PVF-OH

T8: Ac-pSPTF-COOH (peptide 18) (Homo sapiens, UniProt Q9BX63, SMILES CC(=O)N[C@@H](COP(=O)(O)O)C(=O)N1CCC[C@H]1C(=O)N[C@H](C(=O)N[C@@H](Cc1ccccc1)C(=O)O)[C@@H](C)O)
T8 chain: Ac-[pS]PTF-OH

T9: Ac-pSPSF-CONH2 (peptide 8) (Homo sapiens, UniProt Q9BX63, SMILES CC(=O)N[C@@H](COP(=O)(O)O)C(=O)N1CCC[C@H]1C(=O)N[C@@H](CO)C(=O)N[C@@H](Cc1ccccc1)C(N)=O)
T9 chain: Ac-[pS]PSF-NH2

T10: Ac-pSPVF-CONH2 (peptide 7) (Homo sapiens, UniProt Q9BX63, SMILES CC(=O)N[C@@H](COP(=O)(O)O)C(=O)N1CCC[C@H]1C(=O)N[C@H](C(=O)N[C@@H](Cc1ccccc1)C(N)=O)C(C)C)
T10 chain: Ac-[pS]PVF-NH2

B1: BRCA1 BRCT (protein)
chain: VNKRMSMVVSGLTPEEFMLVYKFARKHHITLTNLITEETTHVVMKTDAEFVCERTLKYFLGIAGGKWVVSYFWVTQSIKERKMLNEHDFEVRGDVVNGRNHQGPKRARESQDRKIFRGLEICCYGPFTNMPTDQLEWMVQLCGASVVKELSSFTLGTGVHPIVVVQPDAWTEDNGFHAIGQMCEAPVVTREWVLDSVALYQCQELDTYLIPQIP
B2: BRCA1 BRCT (protein)
chain: STERVNKRMSMVVSGLTPEEFMLVYKFARKHHITLTNLITEETTHVVMKTDAEFVCERTLKYFLGIAGGKWVVSYFWVTQSIKERKMLNEHDFEVRGDVVNGRNHQGPKRARESQDRKIFRGLEICCYGPFTNMPTDQLEWMVQLCGASVVKELSSFTLGTGVHPIVVVQPDAWTEDNGFHAIGQMCEAPVVTREWVLDSVALYQCQELDTYLI

How the values were obtained:
[1] = molecular target: T1, Ac-pSATF-CONH2 (peptide 5); test: fluorescence polarization competition
[2] = molecular target: T2, Ac-pSPTF-CONH2 (peptide 1); test: fluorescence polarization competition
[3] = molecular target: T3, Ac-EPTF-CONH2 (peptide 2); test: fluorescence polarization competition
[4] = molecular target: T4, Ac-pTPTF-CONH2 (peptide 4); test: fluorescence polarization competition
[5] = molecular target: T5, Ac-pSPPF-CONH2 (peptide 15); test: fluorescence polarization competition
[6] = molecular target: T6, Ac-pSPAF-CONH2 (peptide 6); test: fluorescence polarization competition
[7] = molecular target: T7, Ac-pSPVF-COOH (peptide 19); test: fluorescence polarization competition
[8] = molecular target: T8, Ac-pSPTF-COOH (peptide 18); test: fluorescence polarization competition
[9] = molecular target: T9, Ac-pSPSF-CONH2 (peptide 8); test: fluorescence polarization competition
[10] = molecular target: T10, Ac-pSPVF-CONH2 (peptide 7); test: fluorescence polarization competition
[11] = molecular target: T8, Ac-pSPTF-COOH (peptide 18); test: ITC

Row | Binder | IC50 [1] [µM] | IC50 [2] [µM] | IC50 [3] [µM] | IC50 [4] [µM] | IC50 [5] [µM] | IC50 [6] [µM] | IC50 [7] [µM] | IC50 [8] [µM] | IC50 [9] [µM] | IC50 [10] [µM] | Kd [11] [µM]
1 | B1 | 15 | 4.6 | > 250 | > 250 |  |  |  |  |  |  | 
2 | B2 |  |  |  |  | > 250 | 35 | 1.6 | 1 | 30.1 | 3.2 | 0.19
